Results reported in US20160115199A1 (AADIGEN, published 2016).
Where no end group is shown, it is not given here.

Tests used:
HIV integrase = HIV integrase (HIV-1, UniProt P03367 1160-1447); experiment: cell-based or functional assay
cdk2/cyclin A complex = cdk2/cyclin A complex (UniProt P24941 1-298; P20248 1-432); experiment: cell-based or functional assay

With RWTEWEWW (also: cyclic, mode of cyclisation not given here) [PC4 cyclic peptide (RWTEWEWW)] the “IC50 of viral replication (RT activity) on PBMC infected by HIV-1 LAI, PC4D delivered by Short 4” value (HIV integrase) was 0.37 nM, the “IC50 of viral replication (RT activity) on PBMC infected by HIV-1 LAI, PC4D delivered by VEPEP-3i” value (HIV integrase) was 0.24 nM and the “IC50 of viral replication (RT activity) on PBMC infected by HIV-1 LAI, PC4D delivered by VEPEP-3j” value (HIV integrase) was 0.17 nM.

In the case of KKQVRMAHLVLT (also: FITC or Cy5 label, position not given here) [C4 peptide (KKQVRMAHLVLT)], the “IC50 of cell proliferation, Hela cells, C4 delivered by VEPEP-4” value (cdk2/cyclin A complex) is reported as 50 nM and the “IC50 of cell proliferation, MCF7 cells, C4 delivered by VEPEP-4” value (cdk2/cyclin A complex) is reported as 60 nM.
